Results as given in patent US8409836B2, “Treatment of cellulosic material and enzymes useful therein” (Roal Oy, priority 2005, dated 2013).

How the values were obtained:
[1] = Isoelectric focusing (PhastSystem), pI of purified protein; format: physicochemical; conditions: IEF gel
Method: The sample was dissolved in water and applied to a Superdex 75 HR 10/30 gel filtration column equilibrated with 20 mM sodium phosphate pH 6.0, containing 0.15 M NaCl. Fractions were collected and those containing endoglucanase activity were combined. The protein eluate was judged to be pure by SDS-polyacrylamide gel electrophoresis and the molecular mass was evaluated on the basis of molecular mass standards (prestained SDS-PAGE standards, Broad Range, Bio-Rad) to be 54 kDa. The pI of the purified protein, designated as Ct EG—54 was determined with PhastSystem (Pharmacia) to be ca 5.5.
The sample was applied to a Sephacryl S-100 HR 26/60 gel filtration column equilibrated with 50 mM sodium acetate buffer pH 5.0, containing 0.05 M NaCl. The protein fraction containing endoglucanase activity was eluted from the column with a retention volume corresponding to a molecular weight of 16 kDa. Collected fractions were combined, concentrated and gel filtration was repeated. The protein eluate was judged to be pure by SDS-polyacryl amide gel electrophoresis and the molecular weight was evaluated to be 28 kDa. The pI of the purified protein, designated as Ta EG—28, was determined in an IEF gel (PhastSystem, Pharmacia) to be about 3.5. The specific activity of Ta EG—28 at 50° C. was determined to be 4290 nkat/mg (procedure of IUPAC 1987, using CMC as substrate).
The active material from the anion exchange chromatography was applied to a Sephacryl S-300 HR 26/60 column equilibrated with 20 mM sodium phosphate pH 6.5, containing 0.15 M NaCl. The protein with β-glucosidase activity was eluted with a retention volume corresponding to a molecular weight of 243 kDa. The protein was judged to be pure by SDS-polyacrylamide gel electrophoresis and the molecular weight was evaluated to be 101 kDa. The pI of the purified protein, designated as At βG—101, was determined in an IEF gel (PhastSystem, Pharmacia) to be in the area of 5.6-4.9. The specific activity of At βG—101 at 50° C. was determined to be 1100 nkat/mg (using 4-nitrophenyl-β-D-glucopyranoside as substrate, Bailey and Linko, 1990).
The active material from the cation exchange chromatography was applied to a Sephacryl S-300 HR 26/60 column equilibrated with 20 mM sodium phosphate pH 7.0, containing 0.15 M NaCl. The protein with β-glucosidase activity was eluted with a retention volume corresponding to a molecular weight of 294 kDa. […] The protein was judged to be pure by SDS-polyacrylamide gel electrophoresis and the molecular weight was evaluated to be 81 kDa, representing most likely the monomeric form of the protein. […] The specific activity of the purified protein, designated as Ta βG—81, at 50° C. was determined to be 600 nkat/mg using 4-nitrophenyl-β-D-glucopyranoside as substrate (Bailey and Linko, 1990). […]

[2] = Hydrolysis with endoglucanase preparations, spruce; format: biochemical; conditions: 48 h, 45° C., pH 5.0
Method: (§1) The preparations containing the endoglucanases were compared in hydrolysis studies mixed with the purified CBH/Cel7 and CBH/Cel6 enzymes on several pre-treated substrates. Culture filtrates of T. reesei, containing different cloned endoglucanase enzymes were obtained as described in Example 19. The enzymes were enriched by removing thermolabile proteins from the mixtures by a heat treatment (60° C., 2 h, pH 5) and the supernatant was used for the hydrolysis studies. In addition, pure T. reesei cellulases (purified as described by Suurnäkki et al., 2000) were used in the enzyme mixtures. The endoglucanases used in the experiment were:
Washed steam pre-treated spruce fibre (impregnation with 3% SO2 for 20 min, followed by steam pre-treatment at 215° C. for 5 min), dry matter 25.9% (SPRUCE).
(§2) The endoglucanases to be studied (dosage 840 nkat/g dry matter, based on endoglucanase activity against HEC according to IUPAC, 1987) were used either with cellobiohydrolases of T. reesei (CBHI/Cel7A, 8.1 mg/g d.m. and CBHII/Cel6A, 2.0 mg/g d.m.) or with Thermoascus aurantiacus Cel7A with genetically attached CBD of T. reesei (10.1 mg/g d.m.). Purified (Suurnäkki et al., 2000) EGI (Cel7B) and EGII (Cel5A) of T. reesei were also included in the experiments for comparison. All mixtures were supplemented with additional β-glucosidase from Novozym 188 (to make the total β-glucosidase dosage 560 nkat/g d.w., the relatively high dosage was used to compensate the differences in the background activities of the different EG preparations). Triplicate tubes were incubated in mixing at 45° C. for 48 h and reference samples with inactivated enzymes and corresponding substrates were prepared. The release of hydrolysis products was measured as reducing sugars with DNS method using glucose as standard (Table 31).

[3] = Hydrolysis with endoglucanase preparations, corn stover; format: biochemical; conditions: 48 h, 45° C., pH 5.0
Method: as §1
Steam exploded corn stover fibre (steam pre-treatment at 210° C. for 5 min), dry matter 31.0% (SECS).
as §2

[4] = Hydrolysis with CBH enzyme mixtures, Avicel; format: biochemical; conditions: additional enzymes EGII, bG; 48 h, 45° C., pH 5.0
Method: (§3) The performance of the purified recombinant cellobiohydrolases was evaluated in the hydrolysis studies with purified T. reesei enzymes. Hydrolysis was carried out with controlled mixtures of purified enzymes on several pre-treated substrates. […] In addition, pure T. reesei cellulases (purified as described by Suurnäkki et al., 2000) were used in the enzyme mixtures. The cellobiohydrolases used in the experiment were:
(§4) Each CBH/Cel7 to be tested (dosage 14.5 mg/g dry matter of substrate) was used either together with EGII/Cel5A of T. reesei (3.6 mg/g) or with a mixture containing T. reesei EGI/Cel7B (1.8 mg/g), EGII/Cel5A (1.8 mg/g), xylanase pI 9 (Tenkanen et al. 1992) (5000 nkat/g) and acetyl xylan esterase (AXE) (Sundberg and Poutanen, 1991) (250 nkat/g). All mixtures were supplemented with additional β-glucosidase from a commercial enzyme preparation Novozym 188 (176 nkat/g d.w.). Triplicate tubes containing the enzyme mixture and 10 mg (dry matter)/ml of the substrate suspended in 0.05 M sodium acetate were incubated in mixing by magnetic stirring at 45° C. for 48 h. Reference samples with inactivated enzymes and corresponding substrates were also prepared. The release of hydrolysis products was measured as reducing sugars with DNS method using glucose as standard (Table 30).
Crystalline cellulose (Avicel)

[5] = Hydrolysis with CBH enzyme mixtures, spruce; format: biochemical; conditions: additional enzymes EGII, bG; 48 h, 45° C., pH 5.0
Method: as §3, §4
Washed steam pre-treated spruce fibre (impregnation with 3% w/w SO2 for 20 min, followed by steam pre-treatment at 215° C. for 5 min), dry matter 25.9% (SPRUCE).

[6] = Hydrolysis with CBH enzyme mixtures, corn stover; format: biochemical; conditions: additional enzymes EGII, bG, 48 h, 45° C., pH 5.0
Method: as §3, §4
Washed wet oxidized corn stover fibre (WOCS).

[7] = Hydrolysis with CBH enzyme mixtures, willow; format: biochemical; conditions: additional enzymes EGII, bG, 48 h, 45° C., pH 5.0
Method: as §3, §4
Washed steam pre-treated willow fibre (pre-treatment for 14 min at 210° C.), dry matter 23.0% (WILLOW).

[8] = with CBHI and CBHII of T. reesei
[9] = with T. aurantiacus Cel7A + Tr CBD

B1: Ct EG_54: endoglucanase of Chaetomium thermophilum ALKO4261, gene Ct cel7B, amino acid SEQ ID NO: 16 (protein)
chain: MTRKFALVPLLLGLASAQKPGNTPEVHPKITTYRCSHRQGCRPETNYIVLDSLTHPVHQLNSNANCGDWGNPPPRSVCPDVETCAQNCIMEGIQDYSTYGVTTSGSSLRLKQIHQGRVTSPRVYLLDKTEQQYEMMRLTGFEFTFDVDTTKLPCGMNAALYLSEMDATGARSRLNPGGAYYGTGYCDAQCFVTPFINGIGNIEGKGSCCNEMDIWEANSRSQSIAPHPCNKQGLYMCSGQECEFDGVCDEWGCTWNPYKVNVTDYYGRGPQFKVDTTRPFTVITQFPADQNGKLTSIHRMYVQDGKLIEAHTVNLPGYPQVNALNDDFCRATGAATKYLELGATAGMGEALRRGMVLAMSIWWDESGFMNWLDSGESGPCNPNEGNPQNIRQIEPEPEVTYSNLRWGEIGSTYKHNLKGGWTGRN
pI of the purified protein [1]: ~5.5

B2: EGI: endoglucanase I (Cel7B) of T. reesei, reference enzyme (protein, UniProt P07981 23-459, looked up)
Endoglucanase EG-1: QQPGTSTPEVHPKLTTYKCTKSGGCVAQDTSVVLDWNYRWMHDANYNSCTVNGGVNTTLCPDEATCGKNCFIEGVDYAASGVTTSGSSLTMNQYMPSSSGGYSSVSPRLYLLDSDGEYVMLKLNGQELSFDVDLSALPCGENGSLYLSQMDENGGANQYNTAGANYGSGYCDAQCPVQTWRNGTLNTSHQGFCCNEMDILEGNSRANALTPHSCTATACDSAGCGFNPYGSGYKSYYGPGDTVDTSKTFTIITQFNTDNGSPSGNLVSITRKYQQNGVDIPSAQPGGDTISSCPSASAYGGLATMGKALSSGMVLVFSIWNDNSQYMNWLDSGNAGPCSSTEGNPSNILANNPNTHVVFSNIRWGDIGSTTNSTAPPPPPASSTTFSTTRRSSTTSSSPSCTQTHWGQCGGIGYSGCKTCTSGTTCQYSNDYYSQCL
Hydrolysis products as reducing sugars, SPRUCE [2, 8]: 3.5 mg/mL
Hydrolysis products as reducing sugars, SECS [3, 8]: 4.6 mg/mL
Hydrolysis products as reducing sugars, SECS [3, 9]: 4.2 mg/mL

B3: Ta Cel7A + Ct CBD: Thermoascus aurantiacus Cel7A fused to linker and CBD of Chaetomium thermophilum Cel7A, SEQ ID NO: 30 (protein)
chain: MYQRALLFSFFLAAARAQQAGTVTAENHPSLTWQQCSSGGSCTTQNGKVVIDANWRWVHTTSGYTNCYTGNTWDTSICPDDVTCAQNCALDGADYSGTYGVTTSGNALRLNFVTQSSGKNIGSRLYLLQDDTTYQIFKLLGQEFTFDVDVSNLPCGLNGALYFVAMDADGGLSKYPGNKAGAKYGTGYCDSQCPRDLKFINGQANVEGWQPSANDPNAGVGNHGSCCAEMDVWEANSISTAVTPHPCDTPGQTMCQGDDCGGTYSSTRYAGTCDPDGCDFNPYRQGNHSFYGPGQIVDTSSKFTVVTQFITDDGTPSGTLTEIKRFYVQNGKVIPQSESTISGVTGNSITTEYCTAQKAAFGDNTGFFTHGGLQKISQALAQGMVLVMSLWDDHAANMLWLDSTYPTDADPDTPGVARGTCPTTSGVPADVESQYPNSYVIYSNIKVGPIGSTVPGLDGSNPGNPTTTVVPPASTSTSRPTSSTSSPVSTPTGQPGGCTTQKWGQCGGIGYTGCTNCVAGTTCTQLNPWYSQCL
Hydrolysis products as reducing sugars, Avicel [4]: 4.9 mg/mL
Hydrolysis products as reducing sugars, SPRUCE [5]: 3.7 mg/mL
Hydrolysis products as reducing sugars, WOCS ([6]; EGI, XYL, AXE): 7.2 mg/mL
Hydrolysis products as reducing sugars, WOCS [6]: 4.6 mg/mL
Hydrolysis products as reducing sugars, WILLOW ([7]; EGI, XYL, AXE): 5.6 mg/mL
Hydrolysis products as reducing sugars, WILLOW [7]: 3.7 mg/mL

B4: EGII: endoglucanase II (Cel5A) of T. reesei, reference enzyme (protein, UniProt P07982 22-418, looked up)
Endoglucanase EG-II: QQTVWGQCGGIGWSGPTNCAPGSACSTLNPYYAQCIPGATTITTSTRPPSGPTTTTRATSTSSSTPPTSSGVRFAGVNIAGFDFGCTTDGTCVTSKVYPPLKNFTGSNNYPDGIGQMQHFVNEDGMTIFRLPVGWQYLVNNNLGGNLDSTSISKYDQLVQGCLSLGAYCIVDIHNYARWNGGIIGQGGPTNAQFTSLWSQLASKYASQSRVWFGIMNEPHDVNINTWAATVQEVVTAIRNAGATSQFISLPGNDWQSAGAFISDGSAAALSQVTNPDGSTTNLIFDVHKYLDSDNSGTHAECTTNNIDGAFSPLATWLRQNNRQAILTETGGGNVQSCIQDMCQQIQYLNQNSDVYLGYVGWGAGSFDSTYVLTETPTSSGNSWTDTSLVSSCLARK
Hydrolysis products as reducing sugars, SPRUCE [2, 8]: 3.8 mg/mL
Hydrolysis products as reducing sugars, SPRUCE [2, 9]: 3.2 mg/mL
Hydrolysis products as reducing sugars, SECS [3, 8]: 3.5 mg/mL
